Laboratory results: US20040138422A1 (published 2004)
One block for each molecule: values may come before it. *: point of attachment. Biotin = O=C1N[C@H]2[C@H](CS[C@H]2CCCCC(=O)*)N1

Key:
[1] = molecular target: CCR4 on CCR4-transfected B300.19 mouse lymphoma cells (human) (UniProt P51679); test: cell-based or functional assay
[2] = molecular target: CCR4 on CCR4-transfected B300.19 mouse lymphoma cells (human) (UniProt P51679); test: FACS, CCR4-transfected B300.19 cells, biotinylated chemokine then FITC-avidin
[3] = molecular target: T1, FITC-conjugated avidin (BD Biosciences) (UniProt P02701 25-152, FITC conjugate); test: FACS; avidin binds the biotin of the receptor-bound chemokine
T1 construct: Detection reagent; also called FITC-avidin; FITC-labeled avidin
T1 sequence (P02701 25-152 limits assumed): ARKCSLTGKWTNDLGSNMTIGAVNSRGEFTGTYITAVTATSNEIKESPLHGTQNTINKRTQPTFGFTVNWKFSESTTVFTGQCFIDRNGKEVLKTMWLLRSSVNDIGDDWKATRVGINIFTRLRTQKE
Description: After 2 repetitive washings using staining buffer, cells were fixed in PBS with 1% FCS 1% and 1% PFA before FACS analysis.

Chain of CCR4 on CCR4-transfected B300.19 mouse lymphoma cells (human) (P51679 whole entry): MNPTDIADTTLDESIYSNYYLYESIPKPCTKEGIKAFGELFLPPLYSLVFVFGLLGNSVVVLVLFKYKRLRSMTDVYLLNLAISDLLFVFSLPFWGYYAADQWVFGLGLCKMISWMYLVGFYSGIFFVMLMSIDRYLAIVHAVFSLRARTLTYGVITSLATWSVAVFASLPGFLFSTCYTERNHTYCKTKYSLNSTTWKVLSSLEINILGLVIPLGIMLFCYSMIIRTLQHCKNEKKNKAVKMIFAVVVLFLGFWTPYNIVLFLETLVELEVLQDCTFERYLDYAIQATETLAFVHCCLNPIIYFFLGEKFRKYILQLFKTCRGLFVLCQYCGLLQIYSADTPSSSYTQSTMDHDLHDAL

dose at which minimal migration is still detectable [1]: 0.1 ng/mL
dose for optimal migration of CCR4-transfected cells [1]: 1 to 10 ng/mL
MFI [2]: 6.6
Molecule: biotinylated CCL22(K61) analogue (from UniProt O00626 25-93) (ligand)

dose at which minimal migration is still detectable [1]: 0.1 ng/mL
dose for optimal migration of CCR4-transfected cells [1]: 1 to 10 ng/mL
MFI [2]: 6.1
Molecule: biotinylated CCL22(K49) analogue (from UniProt O00626 25-93) (ligand)

dose at which minimal migration is still detectable [1]: 0.1 ng/mL
dose for optimal migration of CCR4-transfected cells [1]: 1 to 10 ng/mL
MFI [2]: 5.9
Molecule: biotinylated CCL22(G1) analogue (from UniProt O00626 25-93) (ligand)

binding result [3]: binds
B1: biotinylated CCL22(K66) analogue (ligand)
chain: GPYGANMEDSVCCRDYVRYRLPLRVVKHFYWTSDSCPRPGVVLLTFRDKEICADPRVPWVKMILNK(Biotin)LSQ
notes: Synthetic human CCL22 with one biotin; also called biotinylated h-MDC
